Data reported in article PMC7881136.

Target: Kapβ2 (untagged, GST removed) (human) (UniProt Q92973)
Test: ITC; 10 μM Kapβ2 in the cell, 100 μM or 200 μM MBP-FUS protein in the syringe; 20 mM Tris–HCl, 150 mM NaCl, 10% glycerol, 2 mM BME; 20 °C; single class of binding sites, global analysis of duplicates or triplicates

Kapβ2 (untagged, GST removed) (human), sequence (Q92973 9-898): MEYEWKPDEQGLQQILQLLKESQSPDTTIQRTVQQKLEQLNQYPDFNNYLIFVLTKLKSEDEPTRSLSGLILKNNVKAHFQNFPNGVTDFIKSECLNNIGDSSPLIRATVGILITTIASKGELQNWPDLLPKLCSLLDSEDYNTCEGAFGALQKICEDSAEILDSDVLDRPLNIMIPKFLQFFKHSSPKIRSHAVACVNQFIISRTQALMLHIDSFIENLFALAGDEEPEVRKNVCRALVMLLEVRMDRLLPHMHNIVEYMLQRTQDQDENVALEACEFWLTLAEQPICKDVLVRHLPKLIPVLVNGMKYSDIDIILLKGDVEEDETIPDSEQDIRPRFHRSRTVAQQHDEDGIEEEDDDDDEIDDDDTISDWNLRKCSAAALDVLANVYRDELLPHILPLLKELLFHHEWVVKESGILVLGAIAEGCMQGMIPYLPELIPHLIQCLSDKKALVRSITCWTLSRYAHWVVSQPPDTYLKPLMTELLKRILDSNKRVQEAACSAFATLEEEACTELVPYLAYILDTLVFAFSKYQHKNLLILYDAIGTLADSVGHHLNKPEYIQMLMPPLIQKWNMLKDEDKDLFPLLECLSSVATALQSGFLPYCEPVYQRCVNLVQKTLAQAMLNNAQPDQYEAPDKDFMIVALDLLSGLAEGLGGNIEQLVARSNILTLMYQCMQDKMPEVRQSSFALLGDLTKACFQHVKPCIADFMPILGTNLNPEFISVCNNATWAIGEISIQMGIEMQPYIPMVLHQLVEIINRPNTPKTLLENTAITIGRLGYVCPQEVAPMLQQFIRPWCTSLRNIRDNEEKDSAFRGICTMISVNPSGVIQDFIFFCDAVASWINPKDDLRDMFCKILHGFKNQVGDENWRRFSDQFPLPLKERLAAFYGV

Kd: 6 µM
Substance: MBP-FUS(453–500) (RGG3) (from UniProt P35637 453-500) (domain or fragment)
